Experimental data published in article PMC5614548, “Effects of isoleucine 135 side chain length on the cofactor donor-acceptor distance within F420H2:NADP^+ oxidoreductase: A kinetic analysis^” (Biochemistry and Biophysics Reports, 2016).
Positions count from the first letter of the chain named. Numbers in names are those of the source. Like-named read-outs stand apart in the source and are kept apart here. Values belong to the molecule of their own block, whether it stands above or below them.

Columns and labels:
[1] = molecular target: Fno (F420H2:NADP+ oxidoreductase) (Archaeoglobus fulgidus, UniProt O29370, I135V); experiment: tryptophan fluorescence titration, fit with Hill coefficient; type: binding
Description: (§1) tryptophan fluorescence titration, fit with Hill coefficient on Fno (F420H2:NADP+ oxidoreductase)

[2] = molecular target: Fno (F420H2:NADP+ oxidoreductase) (Archaeoglobus fulgidus, UniProt O29370, I135A); experiment: as above; type: binding
Description: as §1

[3] = molecular target: Fno (F420H2:NADP+ oxidoreductase) (Archaeoglobus fulgidus, UniProt O29370, I135G); experiment: as above; type: binding
Description: as §1

purified protein [4] = substrate: NC(=O)C1=CN([C@@H]2O[C@H](COP(=O)(O)OP(=O)(O)OC[C@H]3O[C@@H](n4cnc5c(N)ncnc54)[C@H](OP(=O)(O)O)[C@@H]3O)[C@@H](O)[C@H]2O)C=CC1; experiment: purified protein; type: biochemical, Archaeoglobus fulgidus; settings: 25 µM FO, 50 mM MES/NaOH pH 6.5, 22 °C, phase 1 of biphasic fit, negative cooperativity
purified protein [5] = substrate: O=c1nc2n(C[C@H](O)[C@H](O)[C@H](O)CO)c3cc(O)ccc3cc-2c(=O)[nH]1; experiment: purified protein; type: biochemical, Archaeoglobus fulgidus; settings: 600 µM NADPH, 50 mM MES/NaOH pH 6.5, 22 °C

Fno (F420H2:NADP+ oxidoreductase) (Archaeoglobus fulgidus, UniProt O29370, I135G), sequence (O29370 whole entry I135G, one chain of several): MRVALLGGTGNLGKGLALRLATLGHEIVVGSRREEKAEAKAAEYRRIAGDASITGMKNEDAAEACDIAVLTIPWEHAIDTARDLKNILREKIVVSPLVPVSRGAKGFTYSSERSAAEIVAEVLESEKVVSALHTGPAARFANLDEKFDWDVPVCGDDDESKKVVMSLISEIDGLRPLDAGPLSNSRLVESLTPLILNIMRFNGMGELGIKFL
Fno (F420H2:NADP+ oxidoreductase) (Archaeoglobus fulgidus, UniProt O29370, I135A), sequence (O29370 whole entry I135A, one chain of several): as the sequence (O29370 whole entry I135G, one chain of several) above, with G135A counted along it

Kd ([1]; read-out: Kd^FO): 7.5 ± 0.9 nM
Kd ([2]; read-out: Kd^FO): 5.6 ± 0.2 nM
Kd ([3]; read-out: Kd^FO): 6.9 ± 0.3 nM
Molecule: O=c1nc2n(C[C@H](O)[C@H](O)[C@H](O)CO)c3cc(O)ccc3cc-2c(=O)[nH]1 [FO]

Kd ([1]; read-out: Kd^NADPH): 7.4 ± 1.1 nM
Kd ([2]; read-out: Kd^NADPH): 6.7 ± 0.7 nM
Kd ([3]; read-out: Kd^NADPH): 1.5 ± 0.1 nM
Molecule: NC(=O)C1=CN([C@@H]2O[C@H](COP(=O)(O)OP(=O)(O)OC[C@H]3O[C@@H](n4cnc5c(N)ncnc54)[C@H](OP(=O)(O)O)[C@@H]3O)[C@@H](O)[C@H]2O)C=CC1 [NADPH]

B1: Fno (F420H2:NADP+ oxidoreductase) (Archaeoglobus fulgidus DSM 4304; I135V) (protein)
chain: MRVALLGGTGNLGKGLALRLATLGHEIVVGSRREEKAEAKAAEYRRIAGDASITGMKNEDAAEACDIAVLTIPWEHAIDTARDLKNILREKIVVSPLVPVSRGAKGFTYSSERSAAEIVAEVLESEKVVSALHTVPAARFANLDEKFDWDVPVCGDDDESKKVVMSLISEIDGLRPLDAGPLSNSRLVESLTPLILNIMRFNGMGELGIKFL
Km (purified protein [4]): 0.7 ± 0.1 µM
kcat (purified protein [4]): 1.5 ± 0.09 s⁻¹
kcat/Km (purified protein [4]): 2.1e+06 ± 340000 M⁻¹ s⁻¹
Km (purified protein [5]): 3.7 ± 0.4 µM
kcat (purified protein [5]): 1.8 ± 0.1 s⁻¹
kcat/Km (purified protein [5]): 490000 ± 55000 M⁻¹ s⁻¹

B2: Fno (F420H2:NADP+ oxidoreductase) (Archaeoglobus fulgidus DSM 4304; I135G) (protein)
chain: B1 chain with V135G
Km (purified protein [5]): 3.6 ± 0.4 µM
kcat (purified protein [5]): 0.7 s⁻¹
kcat/Km (purified protein [5]): 200000 M⁻¹ s⁻¹

B3: Fno (F420H2:NADP+ oxidoreductase) (Archaeoglobus fulgidus DSM 4304; I135A) (protein)
chain: B1 chain with V135A
Km (purified protein [5]): 3.6 ± 0.5 µM
kcat (purified protein [5]): 1.6 ± 0.1 s⁻¹
kcat/Km (purified protein [5]): 450000 ± 66000 M⁻¹ s⁻¹
